Data as given in the RNAGym collection of RNA variant scans (doi:10.7554/elife.80360).

B1: HDV Ribozyme (parent)
chain: GGCCGGCAUGGUCCCAGCCUCCUCGCUGGCGCCGGCUGGGCAACAUUCCGAGGGGACCGUCCCCUCGGUAAUGGCGAAUGGGACCCA

Variants of: B1
Assay: self-cleavage, relative activity (ratio to wild type); higher = more cleavage; co-transcriptional

Row | Variant | self-cleavage
1 | A77U A87C | 0.655
2 | A71U G73C | 0.54
3 | A78C G82C | 0.0831
4 | U79A A87G | 0.752
5 | G80C C84A | 0.144
6 | U79G C84U | 0.554
7 | G80A A83C | 0.135
8 | A77C C85G | 0.492
9 | A77C C85A | 0.506
10 | G73U A77U | 0.0811
11 | C75U G81C | 0.16
12 | G76C C85U | 1.14
13 | G76C C85G | 1.23
14 | G76C C85A | 0.873
15 | A83G A87U | 0.861
16 | A83G A87G | 0.733
17 | G74U C85U | 0.614
18 | A77G C84A | 0.464
19 | A77G C84G | 0.573
20 | C75G G81U | 0.133
21 | C75G G81A | 0.0332
22 | G74U A78U | 0.332
23 | U72A G80U | 0.251

Row | Variant | self-cleavage
24 | G74C C75G | 0.0386
25 | A77G C85A | 0.851
26 | G73A A83C | 0.198
27 | G73A G82C | 0.172
28 | G74U C75A | 0.228
29 | G74A C86A | 0.537
30 | G74A C86G | 0.375
31 | C85A C86A | 0.924
32 | C75G G80C | 0.0709
33 | A71U A83U | 0.426
34 | U72C | 0.589
35 | U72A | 0.698
36 | U72G | 0.662
37 | C75A G81C | 0.157
38 | C75A G81U | 0.155
39 | G76U A78G | 1.34
40 | U72G G74C | 0.237
41 | G81A A83U | 0.187
42 | G81A A83C | 0.165
43 | G76U C86U | 0.852
44 | A78C A83U | 0.166
45 | C84G C86G | 0.522
46 | U72C A87C | 0.597

Row | Variant | self-cleavage
47 | U72C A87G | 0.712
48 | G73A C86A | 0.781
49 | A71U U72A | 0.969
50 | A71U U72C | 0.57
51 | G73A C75U | 0.119
52 | G73A C75G | 0.19
53 | A71U G74U | 0.689
54 | A71U G74A | 0.519
55 | G82U A87U | 0.462
56 | A71G G73U | 0.291
57 | U79G G80C | 0.277
58 | A71G A83C | 0.415
59 | G74U C84G | 0.126
60 | U79G C86A | 0.675
61 | G73A C84A | 0.564
62 | C85U A87U | 0.956
63 | A71G C86U | 0.665
64 | A71G C86A | 1.19
65 | G73U A87C | 0.385
66 | G73U A87U | 0.374
67 | C75U C86G | 0.145
68 | G73C C86U | 0.914
69 | C75A A78C | 0.104

Row | Variant | self-cleavage
70 | C75A A78G | 0.0898
71 | C75A C86U | 0.0615
72 | G74C G82C | 0.0475
73 | G74C G82A | 0.166
74 | C84A C85U | 0.639
75 | C84A C85A | 0.571
76 | G81A C84U | 0.327
77 | G73A G76A | 0.665
78 | G74C G80A | 0.227
79 | C75U A78C | 0
80 | G74A G82U | 0.125
81 | G74U C86U | 0.648
82 | G74U C86A | 0.389
83 | G74C A78C | 0.185
84 | G74C A78U | 0.332
85 | A71U C75G | 0.0852
86 | A78U C85G | 0.326
87 | G73C A77G | 0.44
88 | U72C G74A | 0.363
89 | U72C G74C | 0.26
90 | C84A A87U | 1.02
91 | G82U C86G | 0.39
92 | A78U A83C | 0.324

Row | Variant | self-cleavage
93 | U79A A83C | 0.151
94 | G74C C85G | 0.0791
95 | C75G C86U | 0.156
96 | C75G C86G | 0
97 | A71U G81A | 0.277
98 | G80A G82U | 0.0511
99 | A78C C85G | 0.0852
100 | G76A G81C | 0.302
101 | G74A G76U | 0.727
102 | G73C G80A | 0.284
103 | A83U C86U | 0.95
104 | U72C U79G | 0.133
105 | A77G C86G | 0.886
106 | A77G C86A | 1.15
107 | A71U A87U | 0.897
108 | A71U A87G | 0.831
109 | G73C G76A | 0.604
110 | G76A C86A | 0.855
111 | G81U A83G | 0.152
112 | U72A C86G | 0.674
113 | A83G C85U | 0.9
114 | G76A A77C | 0.657
115 | G76A A77G | 1.04

Row | Variant | self-cleavage
116 | G76A A77U | 0.76
117 | U72A A78C | 0.125
118 | A78C C86A | 0.192
119 | A78C C86U | 0.225
120 | A78C C86G | 0.14
121 | A77U C86U | 0.729
122 | A77U C86A | 0.831
123 | G82A C85U | 0.495
124 | G82A C85A | 0.253
125 | G76U | 1.03
126 | G76C | 1
127 | G76A | 1.04
128 | U72G G80C | 0.26
129 | G73U U79A | 0.131
130 | G73U U79C | 0.169
131 | A78U U79A | 0.095
132 | A77C A78C | 0.208
133 | A71U C85G | 0.587
134 | G82C C84U | 0.166
135 | A71U U79G | 0.831
136 | C84G A87G | 0.282
137 | C84G A87C | 0.409
138 | C86A A87U | 0.9

Row | Variant | self-cleavage
139 | A77C G81C | 0.0504
140 | G73U G74U | 0.22
141 | G73U G74C | 0.126
142 | G74U A83U | 0.259
143 | C84A C86G | 0.755
144 | U72G G76U | 0.646
145 | U72G G76C | 0.594
146 | U72G C85G | 0.609
147 | A78G U79A | 0.317
148 | A78U G81A | 0.182
149 | G74C A77G | 0.145
150 | A77U G81C | 0.157
151 | U72G G81C | 0.0791
152 | G80C A87U | 0.177
153 | C75A C84A | 0.269
154 | C75A C84U | 0.0545
155 | A71U A77G | 0.508
156 | A71U A77U | 0.415
157 | A83C C86A | 0.554
158 | G76U A87C | 1.17
159 | G76U A87G | 1.13
